The values below come from patent US20030064496.

The data set concerns the target GST-MKK4 fusion protein (Upstate Biotechnologies, Inc) [GST: P08515].

B1: purified mouse MEKK2 (protein)
chain: MDDQQALNSIMQDLAVLHKASRPALSLQETRKAKPSSPKKQNDVRVKFEHRGEKRILQVTRPVKLEDLRSKSKIAFGQSMDLHYTNNELVIPLTTQDDLDKAVELLDRSIHMKSLKILLVVNGSTQATNLEPSPSPEDLNNTPLGAERKKRLSVVGPPNRDRSSPPPGYIPDILHQIARNGSFTSINSEGEFIPESMDQMLDPLSLSSPENSGSGSCPSLDSPLDGESYPKSRMPRAQSYPDNHQEFTDYDNPIFEKFGKGGTYPRRYHVSYHHQEYNDGRKTFPRARRTQGTSFRSPVSFSPTDHSLSTSSGSSVFTPEYDDSRIRRRGSDIDNPTLTVTDISPPSRSPRAPTNWRLGKLLGQGAFGRVYLCYDVDTGRELAVKQVQFNPESPETSKEVNALECEIQLLKNLLHERIVQYYGCLRDPQEKTLSIFMELSPGGSIKDQLKAYGALTENVTRKYTRQILEGVHYLHSNMIVHRDIKGANILRDSTGNIKLGDFGASKRLQTICLSGTGMKSVTGTPYWMSPEVISGEGYGRKADIWSVACTVVEMLTEKPPWAEFEAMAAIFKIATQPTNPKLPPHVSDYTRDFLKRIFVEAKLRPSAEELLRHMFVHYH
B1: the “phosphorylation of GST-MKK4 in a kinase reaction with [gamma-32P]-ATP (SDS-PAGE, phosphorimager)” value is “The ability of extracts containing his-tagged hMEKK2 to phosphorylate GST-MKK4 was comparable to the activity of purified mouse MEKK2”.

B2: His-tagged hMEKK2 (polyhistidine-hMEKK2 fusion) (protein)
chain: HHHHHHMDDQQALNSIMQDLAVLHKASRPALSLQETRKAKSSSPKKQNDVRVKFEHRGEKRILQFPRPVKLEDLRSKAKIAFGQSMDLHYTNNELVIPLTTQDDLDKAVELLDRSIHMKSLKILLVINGSTQATNLEPLPSLEDLDNTVFGAERKKRLSIIGPTSRDRSSPPPGYIPDELHQVARNGSFTSINSEGEFIPESMDQMLDPLSLSSPENSGSGSCPSLDSPLDGESYPKSRMPRAQSYPDNHQEFSDYDNPIFEKFGKGGTYPRRYHVSYHHQEYNDGRKTFPRARRTQGTSLRSPVSFSPTDHSLSTSSGSSIFTPEYDDSRIRRRGSDIDNPTLTVMDISPPSRSPRAPTNWRLGKLLGQGAFGRVYLCYDVDTGRELAVKQVQFDPDSPETSKEVNALECEIQLLKNLLHERIVQYYGCLRDPQEKTLSIFMEYMPGGSIKDQLKAYGALTENVTRKYTRQILEGVHYLHSNMIVHRDIKGANILRDSTGNVKLGDFGASKRLQTICLSGTGMKSVTGTPYWMSPEVISGEGYGRKADIWSVACTVVEMLTEKPPWAEFEAMAAIFKIATQPTNPKLPPHVSDYTRDFLKRIFVEAKLRPSADELLRHMFVHYH
Turning to B2, the “phosphorylation of GST-MKK4 in a kinase reaction with [gamma-32P]-ATP (SDS-PAGE, phosphorimager)” value was “comparable to the activity of purified mouse MEKK2, and significantly above the background levels seen with control extracts”.
